Three proteins from PMC5138414, “Structural Basis for Redox Regulation of Cytoplasmic and Chloroplastic Triosephosphate Isomerases from Arabidopsis thaliana” (Frontiers in Plant Science, 2016) can be followed below.

The data set concerns the molecule itself. The experiment in a line: SEC; analytical size-exclusion chromatography, Superdex 75 10/300GL, calibrated with Bio-Rad gel filtration standard, 0.5 mL/min, 100 mM TEA pH 7.4, 10 mM EDTA, 1 mM DTT; dimer of identical subunits.

Where a chain is given by its changes, count along the chain named. Names may count otherwise.

For orientation: stoichiometry N means the number of molecules, sites or subunits per partner or assembly.

B1: cTPI-C218S (enzyme, Arabidopsis thaliana, UniProt P48491 1-254, looked up)
chain: MARKFFVGGNWKCNGTAEEVKKIVNTLNEAQVPSQDVVEVVVSPPYVFLPLVKSTLRSDFFVAAQNCWVKKGGAFTGEVSAEMLVNLDIPWVILGHSERRAILNESSEFVGDKVAYALAQGLKVIACVGETLEEREAGSTMDVVAAQTKAIADRVTNWSNVVIAYEPVWAIGTGKVASPAQAQEVHDELRKWLAKNVSADVAATTRIIYGGSVNGGNSKELGGQADVDGFLVGGASLKPEFIDIIKAAEVKKSA
notes: cytoplasmic triosephosphate isomerase, Arabidopsis thaliana, At3g55440, point mutant; Made by site-directed mutagenesis of the cTPI construct; source: E. coli BL21 (DE3) Δtpi, purified (IMAC His-Trap FF, Superdex 75)
For B1, the binding result is recorded as “binds”.

B2: cTPI-C13S (enzyme, Arabidopsis thaliana, UniProt P48491 1-254, looked up)
chain: B1 chain with C13S, S218C
notes: as for B1
For the protein B2, the “stoichiometry N” value stood at 2.

B3: cTPI-C13S/C218S (enzyme, Arabidopsis thaliana, UniProt P48491 1-254, looked up)
chain: B1 chain with C13S
notes: cytoplasmic triosephosphate isomerase, Arabidopsis thaliana, At3g55440, double mutant; Made by site-directed mutagenesis of the cTPI construct; also called cTPI double mutant; source: E. coli BL21 (DE3) Δtpi, purified (IMAC His-Trap FF, Superdex 75)
On to B3, for which the “stoichiometry N” value came out at 2.
